Data published in patent US20230053360.

Assays:
[1] = system: MMPpep, (prA)GGPQGIWGQG(azK), as the DNA1-MMPpep-DNA2 triblock conjugate linking two DX tiles
[2] = system: MMPpep-scram, (prA)GQGIPQGWGG(azK), as a DNA-peptide-DNA conjugate linking two DX tiles

Sequence of human matrix metalloproteinase 8 (chain, as listed by the source): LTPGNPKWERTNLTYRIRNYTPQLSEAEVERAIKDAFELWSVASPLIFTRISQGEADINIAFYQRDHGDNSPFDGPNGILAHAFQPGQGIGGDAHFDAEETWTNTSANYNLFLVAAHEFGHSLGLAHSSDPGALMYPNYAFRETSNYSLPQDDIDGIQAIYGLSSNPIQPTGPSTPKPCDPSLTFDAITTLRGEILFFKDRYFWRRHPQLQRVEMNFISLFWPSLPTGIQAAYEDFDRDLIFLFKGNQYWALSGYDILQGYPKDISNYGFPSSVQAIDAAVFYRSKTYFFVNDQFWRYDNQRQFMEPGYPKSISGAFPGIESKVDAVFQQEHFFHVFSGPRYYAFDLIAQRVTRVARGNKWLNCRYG

human matrix metalloproteinase 8
cleavage of DX tile dimer to individual tiles, native PAGE [1]: Following addition of MMP8 (4 ng protein, incubation for 48 h at 37 °C in PBS) a single band is once again seen, corresponding to the individual tiles
cleavage of DX tile dimer to individual tiles, native PAGE [2]: did not show any cleavage to individual tiles
